A short description of the data set: yeast display, Sf9 membrane polyspecificity reagent, FACS + sequencing; frameworks hold sequencing errors. In short, it runs like this: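 Galactose induction of a Saccharomyces cerevisiae BJ5465 synthetic nanobody display library ran 36–48 hours. The cells were then stained for 1 hour at 4 °C with 10% biotinylated, detergent-solubilized Sf9 membrane reagent, pulled down on streptavidin microbeads and FACS-sorted into low and high (top ~1%) gates on expression and reagent-binding fluorescence. Labels for polyreactivity follow the gate of origin.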
“QVQLVESCGGLVQAGGSLRLSCAASGRIFPYNAMGWYRQAPGKERELVAAIDWRDNTYYADSVKGRFTISRDNAKNTVYLQMNSLKPEDTAVYYCNVDYTDYFLNKYDYWGQGTQVTVSS”: the “polyreactivity (PSR sort gate)” value is “low polyreactivity”.

As to “QVQLVESGGGLVQAGGSLRLSCAASGSIQARYAMGWYRQAPGKERELVASITTSGDSTYYADSVKGRFTISRDNAKNTVYLQMNSLKPEDTAVSYCARRRWGWGYQHFPYYYWGQGTQVTVSS”, the “polyreactivity (PSR sort gate)” value was “high polyreactivity”.

Turning to “QVQLVESGGGLVQAGGSLLLTCAASGITFGLYAMGWYREAPGKERELVAAIFSGGITYYADSVKGRFTISRDNAKNTVYLQMNSRKPVDTAVYYCAAYKYSYKYYYWGQGTQVTVSS”, the “polyreactivity (PSR sort gate)” value is listed as “low polyreactivity”.

In the case of “QDQLVESGGGLVQAGGSLSLCCAASGFTFKLYAMGWYRQAAGKVREVVAAISSSGGRTYYADSVKGRFTISRDNAKNTVYLQMNSLKPEDTAVYYCNAVRTVNDYHYDYSGQGTQVTVSS”, the “polyreactivity (PSR sort gate)” value is on record as “high polyreactivity”.

On to “QVQLVESGGCLVQAGGSLRLSCASSGRTFRRYTMGWYRQAPGKETELVAAITSGGRTNYADSVKGRFTISRDNAKNTVYLQMNSLKPEDTAVYYCNAQNEIWRVTFSPYDRWGYDYWGQGTQVTVSS”, for which the “polyreactivity (PSR sort gate)” value was “low polyreactivity”.

“QVQLVESGGGLVQAGGSLRLSCAASGSIFIGYAMGWYRQAPGKERELVAAIDSNGDTTYYADSVKGRFTISRDNAKNTVYLQMNSLKPEDTAVYYCAVDPYHDQLVSDHYYWGQGTQVTVSS”: the “polyreactivity (PSR sort gate)” value is on record as “low polyreactivity”.

For the sequence “QVQLVESGGGLVQAGGSLRLSCAASGRIFTRYGMGWYRQAPGKEREFVAGISWSGGSTFYADSVKGRFTISRDNAKNTVYLQMHSLKPEDTAVYYCAARLYLRRPYEYWGQGTQVTVSS”, the “polyreactivity (PSR sort gate)” value is “high polyreactivity”.

“QVQLVESGGGLVQAGGSLRLSCAASGRTLVYYAMGWYRQAPGKERELVAAITSVGSTNYADSVKGRFTISRDNAKNTVYLQMNSLKPEDTAVYYCAADRTYRFYYTQGYEYWGQGTQVTVSS”: the “polyreactivity (PSR sort gate)” value is reported as “low polyreactivity”.

Turning to “QVQLVESGGGLVQAGGSLRLSCAASGGTFATYAMGWYRQAPGKERELVATIRSGGSTYYADSVKGRFTISRDNAKNTVYLQMNSLKPEDTAVYYCNARAYHKGFYRITYYYWGQGTQVTVSS”, the “polyreactivity (PSR sort gate)” value was “high polyreactivity”.

Take “QVQLVESGGGLVQAGGSLRLSCAASGRIFYQYAMGWYRQAPGKERELVASISRSGTRTYYADSVKGRFTISRDNAKNTVYLQMNSLKPEDTAVYYCAAGYNLYYGVIYGFDYWGQGTQVTVSS”: the “polyreactivity (PSR sort gate)” value is on record as “high polyreactivity”.

As to “QVQLVESGGGLVQAGGSLRLSCAASGFTFLDYAMGWYRQAPGKERELVAAIDDSGGSTYYADSVKGRFTISRDNAKNTVYLQMNSLKPEDTAVYYCAADWYFFSQLYDYWGQGTQVTVSS”, the “polyreactivity (PSR sort gate)” value is on record as “low polyreactivity”.

Turning to “QVQLVESGGGLVQAGGSLRLSCAASGSTFNINAMGWYRPAPRKERELVARIRASGASTYYADSVKGRFTISRDNAKITVYLQMNSLKPDDTAVYYCAAYTYSFRANHDYWGQGTQVTVSS”, the “polyreactivity (PSR sort gate)” value is recorded as “high polyreactivity”.

For the sequence “QVQLVESGGGLVQAGGSLRLSCAASGLTFRFYAMGWYRQAPGKERELVAVISGRGTSTYYADSVKGRFTISRDNAKNTVYLLMNSLKPEDTAVYYCAARYVAYAYVGNDYWGQGTQLTVSS”, the “polyreactivity (PSR sort gate)” value was “high polyreactivity”.

For “QVQLVESVGGLVQAGGSLRLSCAASGSTFYGYAMGWYRQAPGKETELVAAINWSGGSTFYADSVKGRFTISRDNAKNTVYLKMNSLKPEDTAVYYCNKAWRGSVSRRYYYWGQGTQVTVSS”, the “polyreactivity (PSR sort gate)” value is reported as “high polyreactivity”.

On to “QVQLVESGGGLVQAGGSLRLSCAASGNIFSAYAMGWYRQAPGKERELVAAITNGGRTNYADSVKGRFSISRDNAKNTVYLQMNSLKPEDTAVYYCAVASTILGKRTYYYWGQGTQVTVSS”, for which the “polyreactivity (PSR sort gate)” value was “low polyreactivity”.

Turning to “QVQLVESGGGLVQAGGSLRLTCAASGINCVWYAMGWYRQAPGKERELVAAIRSGGITNYADSVKGRFTISRDNAQNTVYLQMNSLKPEDTAVYYCAAPYRTDTGDDYWGQGTQVTLSS”, the “polyreactivity (PSR sort gate)” value was “low polyreactivity”.

Consider “QVQLVESGGGLVQAGGSLRLSCAASGIIFYANAMGWYRQAPGKERELVAAISWSGSSTYYADSVKGRFTISRDNAKNTVYLQMNSLKPEDTAVYYCNKATSSVRYLKYYYWGQGTQVTVSS”, for which the “polyreactivity (PSR sort gate)” value is reported as “high polyreactivity”.

Turning to “QVQLVESGGGLVQAGGSPRLSCAASGFTFYLYAMGWYRQAPGKERELVAAITRVGSTYYADSVKGRFTISRDNAKNTVYLQMNSLKPEDSAVYYCATDLSQVGFDYWGQGTQVSVSS”, the “polyreactivity (PSR sort gate)” value is reported as “high polyreactivity”.

Take “QVQLVESGGGLVQAGGSLRLSCAASGSIFGAYAMGWYRQAPGKERELVAAISGSGTSTYYADSVKGRFTISRDNAKNTVYLQMNSLKPEDTAVYYCAADGTYFYLYLGDRFDYWGQGTQVTVSS”: the “polyreactivity (PSR sort gate)” value was “low polyreactivity”.

As to “QVQLVESGGGLVQAGGSLRLSCASGLTFYRYAMGWYRQAPGKERELVAAINVRGGSTYYADSVKGRFTISRDNAKNTVYLQMNSLKPEETAVYYCAAYYPGFSYRYDYWGQGTQVTVSS”, the “polyreactivity (PSR sort gate)” value is reported as “low polyreactivity”.

Take “QVQLVESGGGLVQGGSLRLSCAATGFTFPIYVMAWYRQAPGKERQLVDSISSVGSTNYADSVKGRFTISRDNAKNTVYLQMNSMKPEDTAVYYCNADAPNSYGGFDYWGQGTQVTVSS”: the “polyreactivity (PSR sort gate)” value was “low polyreactivity”.

In the case of “QVQLVESGGGLVQAGGSLRLSCAASGSIFDYYAMGWYRQAPGKERELVAAISRSGSRTYYADSVKGRFTISRDNAKNTVYLQMNSLKPEDTAVYYCNAYLTLPYSNHAYYYWGQGTQVTVSS”, the “polyreactivity (PSR sort gate)” value is recorded as “high polyreactivity”.

In the case of “QVQLVESGGGLVQAGGSLLLSCAASGSIFITYAMGWYRLAPGKERELVAAIRDSGDRTYYADSVKGRFTISRDNAKNTVYLQMNSLKPEDTAVYDCNARWQEPLKYDYWGQGTQVTVSS”, the “polyreactivity (PSR sort gate)” value is listed as “low polyreactivity”.

Turning to “QVQLVESGGGLVQAGGSLRLSCAASGSTFYAYAMGWYRQAPGKERELVAAIDSGGSTYYADSVKGRFTISRDNAKNTVYLQMNSLKPDDTAVYYCAVRHRYTRAYWGRDYWGQGTQVTVSS”, the “polyreactivity (PSR sort gate)” value was “low polyreactivity”.

Take “QVQLVESGGGLVQAGGSLRLSCAASGRTIRHNAMGWYRQAPGKERELVAAISRSGGSTYYADSVKGRFTISRDYAKNTVYLQMNSLKPEDTAVYYCAAGYHIIYTPEYYYWGQGTQVTVSS”: the “polyreactivity (PSR sort gate)” value is recorded as “high polyreactivity”.

Take “QVQLVESGGGLVQAGGSLRLSCAASGSTFTIYAMGWYRQAPGKEREFVAAIDEDDGSTYYADSVKGRFTISRDNAKKTVYLQMNSLKPEDTAVYYCNADDIWAYAFDYWGQGTQVTVSS”: the “polyreactivity (PSR sort gate)” value is reported as “low polyreactivity”.

Take “QVQLVESGGGLVQAGGSLRLSCAASGRIFVKYAMGWYRQAPGKERELVAAISKSGGSTYYADSVKGRFTISRDNAKNTVYLQMNSLKPEDTAVYYCATRSREQYSVSYRLDYWGQGTQVTVSS”: the “polyreactivity (PSR sort gate)” value is given as “low polyreactivity”.

Take “QVQLVESGGGLVQAGGSLRLSCAASGSTFGINAMGGYRPAPGKERELVAAITASGGRTYYADSVKGRFTISRDNAKNTVYLQMNSLKPEDTAVYYCAAGFYPYYYWGQGTQVTVSS”: the “polyreactivity (PSR sort gate)” value is listed as “low polyreactivity”.

For “QVQLVESGGGLVQAGGRLRLSCAASGSIFYYNAMGWYRQAPGKERELVAAISRGGRTYYADSVKGRFTISRDNEKNTVYLQMNSLKPEDTAVYYCSARWSGKSINTISFDYWGQGTQVTVSS”, the “polyreactivity (PSR sort gate)” value was “high polyreactivity”.

“QFQLVESGGGLVQAGGSLRLSCAASGYIFYGYVMGWYRQAPGKERELVAGITYSGGGGTHYADSVNGRFTISRDNAKNTVYLQMNSLKPEDTAVYYCAKADPQLNRTYYSYGMDYWGHGTQVTVSS”: the “polyreactivity (PSR sort gate)” value is listed as “low polyreactivity”.

Take “QVQLVESGGGLVQAGGSLRLSCAASGFTFWYYAMGWYRQAPGKERELVASISRTGGTTYYADSVKGRFTISRDNAKNTVYLQMNSLKPEDTAVYYCNARPKVYYREYDYWGQGTQVTVSS”: the “polyreactivity (PSR sort gate)” value is “high polyreactivity”.

For the sequence “QVQLVESGGGLVQAGGSLRLTCAASGSTFDYNTMGWYRPAPGKETELVAAISESGGSTYYADSVKGRFTISRDNAKNTVYLQMNSLTPEDTAVYYCATDDFGGYFGEYDYWGQGTQVTVSS”, the “polyreactivity (PSR sort gate)” value is “low polyreactivity”.

For the sequence “QVQLVESGGGLVQAGGSLRLSCAASGSTFSPYAMGWYRQAPGKERELVAAISYDGGSTYYADSVKGRFTISRDNAKNTVYLQMNSLKPDDTAGYYCAADYFRSYEGTYWVVASYYYWGQGTQVTVSS”, the “polyreactivity (PSR sort gate)” value is on record as “low polyreactivity”.

In the case of “QVQLVESRGGLVQAGGSLRLSCAASGSTFRIKAMGWYRQAPGNERELFAAIRASGTSTYYADSVKGRFTISRDNGQNTVYLLMIRLKPEDTAVDYCAASAQQPVLGLSYYYWGQGTQVTVSS”, the “polyreactivity (PSR sort gate)” value was “high polyreactivity”.

Take “QVQLVESGAGLVQAGGILRLSCAASGRIIAYYAMGWYRQAPGKERELVAAINWSGGRTYYADSVKGRFTISRDNAKNTVYLQMNSLKPEDTAVYYCAARVSYGYDYWGQGTQVTVSS”: the “polyreactivity (PSR sort gate)” value is given as “high polyreactivity”.

On to “QVQLEVSGGGLDQAGGSLRLSCAASGFTFVYYVMGCYRQAPGKQWELVAAINAGGGSTYYADSVKGRFTISRDNAKNTVYLQMNSLKPEDTAVYYCNARVRVRLGRNWSSYYYWGQGTQVTVSS”, for which the “polyreactivity (PSR sort gate)” value is reported as “high polyreactivity”.

On to “QVQLVESGGGLVQAGGSLRLSCAASGFIFFGYAMGWYRQAPGKERELVAAITSGGSTYYADSVKGRFTISRDNAKNTVYLQMNSLKPEDTAVYYCAASRVRYSYGYPYYYWGQGTQVTVSS”, for which the “polyreactivity (PSR sort gate)” value is recorded as “high polyreactivity”.

With “QVQLVESGGGLVQAGGSLRLSCAASGLTFYYYAMGWYRQAPGKERELVATITSSGARTYYADSVKGRFTISRDNAKNTVYLQMNSLKPEDTEVYYCAADYGIWQRGSHYWDMDYWGQGTQVTVSS”, the “polyreactivity (PSR sort gate)” value is given as “high polyreactivity”.

Take “QVQLVESGGGLVQAGGSLRLSCAASGRIFVSNDMGWYSQAPGKERELVAAISWSDDSTHYADSVKGRLTISRDNAKNTVYLQMNSLKPEDTAVYYCNKQRYYSTWRYDYWGQGTQVTVSS”: the “polyreactivity (PSR sort gate)” value is “low polyreactivity”.

As for “QVQLVESGGGLVQAGGSLRLSCAASGSIFRNAMGWYRQAPGKERELVATISYRGGSTYYADSVKGRFTISRDNAKNTVYLQMNSLKPEDTAVYYCNADSKLVGYNYWGQGTQVTVSS”, the “polyreactivity (PSR sort gate)” value is recorded as “low polyreactivity”.

In the case of “QVQLVESGGGLVQAGGSLRLSCAASGRTFLWNDMGWYRQAPGKERELVAAITGSDGTYADSVKGRFTISRDNAKNTVYLQMNSLKPEDTAVYYCAAVYSYQNEGYDYWGQGTQVTVSS”, the “polyreactivity (PSR sort gate)” value is given as “low polyreactivity”.

(Values after the nanobody polyreactivity screen of Harvey et al. (2022).)
